Source: the supplement of paper PMC12042874
± gives the uncertainty stated by the source.

Assay: amyloid nucleation score (Sup35N fusion, yeast selection) (log enrichment); library NNK2; higher = more nucleation; inactive = no reads after selection
Procedure, shortened: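 The nucleation score, computed with DiMSum, is the log enrichment of output over input reads, centred on the mode score of non-aggregating sequences. Sequences with under 100 input reads were dropped. Reads were generated by Illumina sequencing of plasmid inserts from psi-negative yeast with Sup35N fused to peptides of 20 random codons, induced with 100 μM copper sulfate for 24 hours and grown 7 days at 30°C on medium lacking adenine and uracil.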

| Substance | amyloid nucleation score |
| --- | --- |
| SSSAIHLRFNYCYHCFHSLT | 5.08 ± 0.065 |
| SSSDFEFSHVIKGAIFRLFT | -1.2 ± 1 |
| SSSEVSFSCYVVDVQLS | -0.603 ± 0.49 |
| SSSLLRSHRVGYVNLVVRED | -0.524 ± 0.55 |
| SSSREALCRKHDGVL | 0.905 ± 0.45 |
| SSSTFCCLWTFDTRVQFLVN | 7.39 ± 0.079 |
| SSSVDRTVHPLCYGFSLRRD | -0.168 ± 0.28 |
| SSTKIFHLL | inactive |
| SSTPMCVPMYCS | inactive |
| SSTVAGAIIE | 0.575 ± 0.18 |
| SSVAKVRGSVLYMGRSGWVG | 0.138 ± 0.8 |
| SSVQNCSVCVGGPMYREFSW | 4.994 ± 0.042 |
| SSWLYGVYSSYMWMLF | -1.45 ± 1 |
| SSYGWVMLMEDFW | -1.23 ± 0.62 |
| SSYTMEPPHVRA | 0.155 ± 1.1 |
| STDAILAGKFCSGH | -0.943 ± 0.55 |
| STFFKLD | -1.88 ± 1.1 |
| STFIMCDRTDPASIAIA | 0.6 ± 0.64 |
| STFLKATYRSHRRHW | 0.962 ± 0.39 |
| STGSNFDESSKQCFAFICKK | inactive |
| STIQGIKNRSYRHSSANRVN | 0.333 ± 0.61 |
| STLKPVNPGKVRH | 0.445 ± 0.57 |
| STLTFIVSSSDEGWSHYREA | 3.79 ± 0.07 |
| STMRSWAAC | 4.25 ± 0.091 |
| STMWTIGSWLKAGALSFGFL | -0.441 ± 0.36 |

| Substance | amyloid nucleation score |
| --- | --- |
| STNSDFLYQKNLPMVSSGNI | -0.408 ± 0.79 |
| STPHFH | -0.146 ± 1 |
| STRNSFPSDKAYLS | -0.605 ± 0.74 |
| STSGVKAVQISLSSVPWRWD | 2.34 ± 0.13 |
| STVFRQSLE | 0.269 ± 0.22 |
| STVTVGHNSHVCAFIF | -0.326 ± 0.54 |
| STVYIVCHGVILRVRMGPWL | 2.46 ± 0.12 |
| STWCRMANYLITCFVTKSRV | -1.33 ± 1.1 |
| STWDESWLHVLRWREFATLQ | 1.11 ± 0.22 |
| STWKNDHTHSCASWAKVCIT | -0.138 ± 0.34 |
| STWPCNQPSYVSV | 0.204 ± 0.28 |
| SVAASGFHVV | -1.57 ± 0.76 |
| SVADGAHFCYYNLYFGGFVY | 4.24 ± 0.081 |
| SVDIHGTFWHILYSIAPDQV | 1.75 ± 0.23 |
| SVFSYQYETKVGSQNLLEYI | -0.751 ± 1.1 |
| SVFVCTDIFK | 0.702 ± 0.52 |
| SVGRTESAQYRKTV | 0.568 ± 0.44 |
| SVIHREIELVFILI | 4.4 ± 0.087 |
| SVIITIGLSIKSALRFRRFQ | 4.57 ± 0.058 |
| SVIRMLYD | -0.113 ± 0.45 |
| SVKCWRWFGA | 1.73 ± 0.27 |
| SVKCWVALAPYLGDRKDPVW | 2.94 ± 0.15 |
| SVLER | -0.147 ± 1.1 |
| SVLLRDMGILYVMRNYYWPL | -0.033 ± 0.76 |
| SVLLWWTHMYGLRMMKGVWG | 0.433 ± 0.15 |

| Substance | amyloid nucleation score |
| --- | --- |
| SVLQAYFRTWSQWIRYTCAG | -0.141 ± 0.31 |
| SVLSFMRYLCGWQA | 6.513 ± 0.053 |
| SVLTIRLKMQGHWLPGAAGC | 3.66 ± 0.15 |
| SVMSRNGNYVIVLGQCNCYM | 8.509 ± 0.022 |
| SVNILDTWDKVAPTKRPLES | 0.266 ± 0.49 |
| SVRPRPD | 0.617 ± 0.23 |
| SVSYSGDNH | -0.177 ± 1 |
| SVTCSSRCVSQRRFLVGPWN | -1.35 ± 0.41 |
| SVVLCTAFVQPC | 0.158 ± 0.45 |
| SVWGKD | 0.073 ± 0.63 |
| SVYANILFNKACMRFNVVNG | 0.23 ± 0.21 |
| SWFRMSVWSSLRAHMNASNT | -0.198 ± 0.28 |
| SWHQKSELKTCWSLAIQYHT | -0.191 ± 0.65 |
| SWKFNRASPSEMMCASNAWN | 0.404 ± 0.8 |
| SWLTRIC | -0.249 ± 0.63 |
| SWMNYRCRQDMSCCK | 0.908 ± 0.47 |
| SWRENFGWGICCSTVWPRCR | 1.86 ± 0.21 |
| SWRTWISRCYFTLDDVSKTA | 0.181 ± 0.43 |
| SWSCRMEADSGFPAFIGAKK | -0.47 ± 1 |
| SWVTSYERLRLPLNCMSNDQ | -0.452 ± 0.42 |
| SWYLFGPDR | -0.433 ± 0.54 |
| SYDGERVI | 0.444 ± 0.28 |
| SYDLPPFI | 2.57 ± 0.11 |
| SYECCNKMQDINSMCGKLYW | 0.274 ± 1.1 |
| SYFKSTSARCFSFYLCCAKT | 6.224 ± 0.05 |

| Substance | amyloid nucleation score |
| --- | --- |
| SYFMTLIVPGRLLWIDLEGV | -0.823 ± 0.63 |
| SYIICELNQLLGFKNWHKTC | 2.83 ± 0.068 |
| SYLDILCVRIVSHHCSVSSK | 0.112 ± 0.46 |
| SYLHNSN | -1.26 ± 0.78 |
| SYMFDSEVQVRTDFLLFCYI | 0.346 ± 0.17 |
| SYNDWGFMKVGCL | -0.686 ± 0.39 |
| SYNRSKCNSTRLMLKSKTAH | 1.51 ± 0.47 |
| SYPFYVFSSNASSTAVIKLT | 1.07 ± 0.19 |
| SYSSPHRINGCVIRP | -0.084 ± 0.54 |
| SYVGICGAMNLCSETVSCMV | -0.977 ± 0.41 |
| SYVGVSNGRVVWVRVMANSK | inactive |
| SYVIGGGSMGQARDRCLSNA | 1.11 ± 0.23 |
| SYVIP | -1.06 ± 1 |
| SYVSIWLACWLISFNWSGNG | 0.713 ± 0.58 |
| SYYISHYMSVWISLTDSGCY | -0.14 ± 0.56 |
| SYYYEGGPCWIEDLHGNVYV | 0.183 ± 0.64 |
| TAKDAFMFQGLASLS | inactive |
| TARLLSPQ | -0.376 ± 0.76 |
| TASKILSGIASYDSRIIQPE | -0.447 ± 0.23 |
| TASWNWLGIVRAGF | 1.08 ± 0.27 |
| TCATTDGVR | 1.04 ± 0.21 |
| TCCRLILYGILINNLRAWSH | 4.01 ± 0.073 |
| TCELYESHVGTFLHVSSNGT | 1.23 ± 0.12 |
| TCFMRCRTCNLRVIHSDVF | 5.546 ± 0.048 |
| TCGRYSYSWVFSESKS | inactive |

| Substance | amyloid nucleation score |
| --- | --- |
| TCIGHFSNSQYN | inactive |
| TCLVCVTEVAHDSHLNRVSH | 7.08 ± 0.082 |
| TCQPGRLALNAKERGSGDRL | 0.482 ± 0.3 |
| TDLWSNYLSGNLVENFITCL | -1.96 ± 1.1 |
| TDNMDEMDREYLSCHKFCFG | 3.69 ± 0.045 |
| TDVIYYGYLSRRLQVYVLPS | -1.55 ± 1.1 |
| TECYLDVHLLHCRCALRSTP | 6.83 ± 0.069 |
| TEIKSCKDNTHVHMHSLIRA | 0.384 ± 0.43 |
| TFEYCSLYVGCNQGNLVITT | 6.575 ± 0.041 |
| TFGLWPPQGMAIRGMRVNMN | inactive |
| TFIVMKIHYRFKVKLICQTC | 0.681 ± 0.46 |
| TFLIGTV | -1.01 ± 0.5 |
| TFNVPKMESVRPPG | 0.796 ± 0.52 |
| TFPSISTFARSLFFVYQVYP | -1.13 ± 1.1 |
| TFQSYRDESFSWSRLVSSQR | -0.477 ± 0.26 |
| TFRAMAFVIFAGWLIRYDRR | inactive |
| TFRRTVNGNMRGQMPTNWAF | 0.537 ± 0.22 |
| TFSFFATVDQMFCCVGRCEW | 8.132 ± 0.03 |
| TFTGLFKKLI | inactive |
| TFVKGKMFNLTRVWVLPYWT | 0.318 ± 0.46 |
| TGALHWVNAYVLFRKVCKGM | 0.297 ± 0.26 |
| TGDCC | 0.32 ± 0.33 |
| TGFCGRHYDLSSSTEDLYLL | 0.606 ± 0.8 |
| TGFSLVFSWFFLNG | 3.68 ± 0.099 |
| TGGISYLD | inactive |

| Substance | amyloid nucleation score |
| --- | --- |
| TGLAIGCFLVCSVLYGDR | 3.17 ± 0.13 |
| TGLVMVHSTRVPKRLGMLCL | 0.967 ± 0.33 |
| TGLWDVCQVLIRFRNVFWRN | 3.06 ± 0.079 |
| TGRTTF | inactive |
| TGTPYRF | 1.11 ± 0.23 |
| THMYCIMVYRRYSGSVGLGY | 0.127 ± 0.77 |
| THTSLLSLVP | -0.291 ± 0.76 |
| THVECALMTYPDVYSDEGFI | -0.001 ± 0.32 |
| TIENLNLFWF | 5.73 ± 0.06 |
| TIIRDFSWLHLGFPRACIIT | -0.976 ± 0.64 |
| TILWEVVGAL | 0.091 ± 0.17 |
| TIQRRQFVNPDSVVMLRINY | -0.704 ± 0.76 |
| TISLPYHHKVSRAMNSRF | -0.028 ± 0.62 |
| TISLRGDMDSSCKGIEGSSL | -0.316 ± 1.1 |
| TITMFHYLRSLSGNSDYGLG | 2.31 ± 0.1 |
| TIWFFFL | 7.075 ± 0.043 |
| TKCVFIVCRLYVFDMVGLYV | -0.573 ± 0.78 |
| TKEFGECFIQMIMYNGRDIL | 1.88 ± 0.1 |
| TLAEFGQQPGRGACMYAVNN | inactive |
| TLCRAGLNGPWLNVLRFVPR | 0.615 ± 0.36 |
| TLDTSYYFLTRVFNHLNISE | -0.776 ± 0.55 |
| TLELLIMD | 0.385 ± 0.33 |
| TLFSMVNSTLNGWWIMT | 6.84 ± 0.061 |
| TLGPL | inactive |
| TLHVVQFWKSCI | -0.343 ± 0.45 |

| Substance | amyloid nucleation score |
| --- | --- |
| TLKVRNLNVQEFVVSPNQRH | 4.99 ± 0.088 |
| TLLIMCGSISHSFPSECHWL | 0.716 ± 0.15 |
| TLLTYMVLKCFQFVSEYLWK | 3.7 ± 0.07 |
| TLMWESYMWS | -0.897 ± 0.63 |
| TLNLDFFELSMPGDFSDLVS | inactive |
| TLNMNVSFPIRRAHIYEMLI | 0.83 ± 0.48 |
| TLRHSKFTSIPVIETGLCGV | -1.44 ± 1.1 |
| TLRIWYCWHDSAYTSSDHII | 1.45 ± 0.2 |
| TLSSKLFCVKASVRSMGPVV | 7.723 ± 0.047 |
| TLSVGVQL | -0.624 ± 0.63 |
| TLTPNNSTCTGVCFCLSYNQ | 9.475 ± 0.059 |
| TLVLTEFDKGIDIVL | -0.565 ± 0.26 |
| TLYKFM | -0.476 ± 0.74 |
| TMCDSIVIEYGPCIFDSSSS | 4.74 ± 0.056 |
| TMLFRRFYSFMSTL | -0.053 ± 1 |
| TMLSLSDISFQLKKILL | 2.56 ± 0.15 |
| TMQSWFSAFYLVVDMPTRYC | -0.232 ± 0.29 |
| TMRVHRYRTN | -0.493 ± 0.63 |
| TMVMTVQPPLHLFCLDLMHD | 2.24 ± 0.12 |
| TMWGNI | -1.59 ± 0.48 |
| TMYIWRL | 6.58 ± 0.039 |
| TMYLFGYEV | 1.31 ± 0.35 |
| TMYVREYSFYFLYNVDITRG | 0.649 ± 0.32 |
